From the supplement of paper PMC12338614 come the findings set out here.

± gives the uncertainty stated by the source.

The chains are these.
B1: library; numbered along this chain (parent)
chain: MEVVDPQQLGMFTEGELMSVGMDTFIHRIDSTEVIYQPRRKRAKLIGKYLMGDLLGEGSYGKVKEVLDSETLCRRAVKILKKKKLRRIPNGEANVKKEIQLLRRLRHKNVIQLVDVLYNEEKQKMYMVMEYCVCGMQEMLDSVPEKRFPVCQAHGYFCQLIDGLEYLHSQGIVHKDIKPGNLLLTTGGTLKISDLGVAEALHPFAADDTCRTSQGSPAFQPPEIANGLDTFSGFKVDIWSAGVTLYNITTGLYPFEGDNIYKLFENIGKGSYAIPGDCGPPLSDLLKGMLEYEPAKRFSIRQIRQHSWFRKKHPPAEAPVPIPPSPDTKDRWRSMTVVPYLEDLHGADEDEDLFDIEDDIIYTQDFTVPGQVPEEEASHNGQRRGLPKAVCMNGTEAAQLSTKSRAEGRAPNPARKACSASSKIRRLSACKQQ

The variants in this data set derive from B1. The experiment in a line: STK11 functional score (HeLa growth suppression), rescaled enrichment; synonymous median = 1, nonsense median = 0 (normalised score). To be noted: with HeLa; variant type: missense. Put shortly: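 Functional scores are post/pre-selection log ratios corrected to wild type, rescaled to synonymous and nonsense medians, merged over codons and replicate transfections, and given bootstrapped error. They come from POPCode libraries of codon-optimised STK11 integrated by Bxb1 at an AAVS1 landing pad in HeLa, three regions each transfected three times, with BFP-negative, mCherry-positive integrants sorted by FACS and tiled gDNA amplicons sequenced on NextSeq.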
In the case of MEVVDPQQLGMFTEGELMSVGMDTFIHRIDSTEVIYQPRRKRAKLIGKYLMGDLLGEGSYGKVKEVLDSETLCRRAVKILKKKKLRRIPNGEANVKKEIQLLRRLRHKNVIQLVDVLYNEEKQKMYMVMEYCVCGMQEMLDSVPEKRFPVEQAHGYFCQLIDGLEYLHSQGIVHKDIKPGNLLLTTGGTLKISDLGVAEALHPFAADDTCRTSQGSPAFQPPEIANGLDTFSGFKVDIWSAGVTLYNITTGLYPFEGDNIYKLFENIGKGSYAIPGDCGPPLSDLLKGMLEYEPAKRFSIRQIRQHSWFRKKHPPAEAPVPIPPSPDTKDRWRSMTVVPYLEDLHGADEDEDLFDIEDDIIYTQDFTVPGQVPEEEASHNGQRRGLPKAVCMNGTEAAQLSTKSRAEGRAPNPARKACSASSKIRRLSACKQQ [C151E], the STK11 functional score is 0.756 ± 0.29. The same measure for MEVVDPQQLGMFTEGELMSVGMDTFIHRIDSTEVIYQPRRKRAKLIGKYLMGDLLGEGSYGKVKEVLDSETLCRRAVKILKKKKLRRIPNGEANVKKEIQLLRRLRHKNVIQLVDVLYNEEKQKMYMVMEYCVCGMQEMLDSVPEKRFPVNQAHGYFCQLIDGLEYLHSQGIVHKDIKPGNLLLTTGGTLKISDLGVAEALHPFAADDTCRTSQGSPAFQPPEIANGLDTFSGFKVDIWSAGVTLYNITTGLYPFEGDNIYKLFENIGKGSYAIPGDCGPPLSDLLKGMLEYEPAKRFSIRQIRQHSWFRKKHPPAEAPVPIPPSPDTKDRWRSMTVVPYLEDLHGADEDEDLFDIEDDIIYTQDFTVPGQVPEEEASHNGQRRGLPKAVCMNGTEAAQLSTKSRAEGRAPNPARKACSASSKIRRLSACKQQ [C151N]: 0.808 ± 0.43; for MEVVDPQQLGMFTEGELMSVGMDTFIHRIDSTEVIYQPRRKRAKLIGKYLMGDLLGEGSYGKVKEVLDSETLCRRAVKILKKKKLRRIPNGEANVKKEIQLLRRLRHKNVIQLVDVLYNEEKQKMYMVMEYCVCGMQEMLDSVPEKRFPVKQAHGYFCQLIDGLEYLHSQGIVHKDIKPGNLLLTTGGTLKISDLGVAEALHPFAADDTCRTSQGSPAFQPPEIANGLDTFSGFKVDIWSAGVTLYNITTGLYPFEGDNIYKLFENIGKGSYAIPGDCGPPLSDLLKGMLEYEPAKRFSIRQIRQHSWFRKKHPPAEAPVPIPPSPDTKDRWRSMTVVPYLEDLHGADEDEDLFDIEDDIIYTQDFTVPGQVPEEEASHNGQRRGLPKAVCMNGTEAAQLSTKSRAEGRAPNPARKACSASSKIRRLSACKQQ [C151K]: 1.67 ± 0.32.

Take MEVVDPQQLGMFTEGELMSVGMDTFIHRIDSTEVIYQPRRKRAKLIGKYLMGDLLGEGSYGKVKEVLDSETLCRRAVKILKKKKLRRIPNGEANVKKEIQLLRRLRHKNVIQLVDVLYNEEKQKMYMVMEYCVCGMQEMLDSVPEKRFPVIQAHGYFCQLIDGLEYLHSQGIVHKDIKPGNLLLTTGGTLKISDLGVAEALHPFAADDTCRTSQGSPAFQPPEIANGLDTFSGFKVDIWSAGVTLYNITTGLYPFEGDNIYKLFENIGKGSYAIPGDCGPPLSDLLKGMLEYEPAKRFSIRQIRQHSWFRKKHPPAEAPVPIPPSPDTKDRWRSMTVVPYLEDLHGADEDEDLFDIEDDIIYTQDFTVPGQVPEEEASHNGQRRGLPKAVCMNGTEAAQLSTKSRAEGRAPNPARKACSASSKIRRLSACKQQ [C151I]: the STK11 functional score was 0.722 ± 0.19. Then MEVVDPQQLGMFTEGELMSVGMDTFIHRIDSTEVIYQPRRKRAKLIGKYLMGDLLGEGSYGKVKEVLDSETLCRRAVKILKKKKLRRIPNGEANVKKEIQLLRRLRHKNVIQLVDVLYNEEKQKMYMVMEYCVCGMQEMLDSVPEKRFPVAQAHGYFCQLIDGLEYLHSQGIVHKDIKPGNLLLTTGGTLKISDLGVAEALHPFAADDTCRTSQGSPAFQPPEIANGLDTFSGFKVDIWSAGVTLYNITTGLYPFEGDNIYKLFENIGKGSYAIPGDCGPPLSDLLKGMLEYEPAKRFSIRQIRQHSWFRKKHPPAEAPVPIPPSPDTKDRWRSMTVVPYLEDLHGADEDEDLFDIEDDIIYTQDFTVPGQVPEEEASHNGQRRGLPKAVCMNGTEAAQLSTKSRAEGRAPNPARKACSASSKIRRLSACKQQ [C151A], with 1.4 ± 0.25; and MEVVDPQQLGMFTEGELMSVGMDTFIHRIDSTEVIYQPRRKRAKLIGKYLMGDLLGEGSYGKVKEVLDSETLCRRAVKILKKKKLRRIPNGEANVKKEIQLLRRLRHKNVIQLVDVLYNEEKQKMYMVMEYCVCGMQEMLDSVPEKRFPVGQAHGYFCQLIDGLEYLHSQGIVHKDIKPGNLLLTTGGTLKISDLGVAEALHPFAADDTCRTSQGSPAFQPPEIANGLDTFSGFKVDIWSAGVTLYNITTGLYPFEGDNIYKLFENIGKGSYAIPGDCGPPLSDLLKGMLEYEPAKRFSIRQIRQHSWFRKKHPPAEAPVPIPPSPDTKDRWRSMTVVPYLEDLHGADEDEDLFDIEDDIIYTQDFTVPGQVPEEEASHNGQRRGLPKAVCMNGTEAAQLSTKSRAEGRAPNPARKACSASSKIRRLSACKQQ [C151G], with 0.587 ± 0.11.

For MEVVDPQQLGMFTEGELMSVGMDTFIHRIDSTEVIYQPRRKRAKLIGKYLMGDLLGEGSYGKVKEVLDSETLCRRAVKILKKKKLRRIPNGEANVKKEIQLLRRLRHKNVIQLVDVLYNEEKQKMYMVMEYCVCGMQEMLDSVPEKRFPVLQAHGYFCQLIDGLEYLHSQGIVHKDIKPGNLLLTTGGTLKISDLGVAEALHPFAADDTCRTSQGSPAFQPPEIANGLDTFSGFKVDIWSAGVTLYNITTGLYPFEGDNIYKLFENIGKGSYAIPGDCGPPLSDLLKGMLEYEPAKRFSIRQIRQHSWFRKKHPPAEAPVPIPPSPDTKDRWRSMTVVPYLEDLHGADEDEDLFDIEDDIIYTQDFTVPGQVPEEEASHNGQRRGLPKAVCMNGTEAAQLSTKSRAEGRAPNPARKACSASSKIRRLSACKQQ [C151L], the STK11 functional score turned out to be 0.508 ± 0.091.

Regarding MEVVDPQQLGMFTEGELMSVGMDTFIHRIDSTEVIYQPRRKRAKLIGKYLMGDLLGEGSYGKVKEVLDSETLCRRAVKILKKKKLRRIPNGEANVKKEIQLLRRLRHKNVIQLVDVLYNEEKQKMYMVMEYCVCGMQEMLDSVPEKRFPVHQAHGYFCQLIDGLEYLHSQGIVHKDIKPGNLLLTTGGTLKISDLGVAEALHPFAADDTCRTSQGSPAFQPPEIANGLDTFSGFKVDIWSAGVTLYNITTGLYPFEGDNIYKLFENIGKGSYAIPGDCGPPLSDLLKGMLEYEPAKRFSIRQIRQHSWFRKKHPPAEAPVPIPPSPDTKDRWRSMTVVPYLEDLHGADEDEDLFDIEDDIIYTQDFTVPGQVPEEEASHNGQRRGLPKAVCMNGTEAAQLSTKSRAEGRAPNPARKACSASSKIRRLSACKQQ [C151H], the STK11 functional score stood at 0.883 ± 0.11. In the case of MEVVDPQQLGMFTEGELMSVGMDTFIHRIDSTEVIYQPRRKRAKLIGKYLMGDLLGEGSYGKVKEVLDSETLCRRAVKILKKKKLRRIPNGEANVKKEIQLLRRLRHKNVIQLVDVLYNEEKQKMYMVMEYCVCGMQEMLDSVPEKRFPVMQAHGYFCQLIDGLEYLHSQGIVHKDIKPGNLLLTTGGTLKISDLGVAEALHPFAADDTCRTSQGSPAFQPPEIANGLDTFSGFKVDIWSAGVTLYNITTGLYPFEGDNIYKLFENIGKGSYAIPGDCGPPLSDLLKGMLEYEPAKRFSIRQIRQHSWFRKKHPPAEAPVPIPPSPDTKDRWRSMTVVPYLEDLHGADEDEDLFDIEDDIIYTQDFTVPGQVPEEEASHNGQRRGLPKAVCMNGTEAAQLSTKSRAEGRAPNPARKACSASSKIRRLSACKQQ [C151M], the STK11 functional score worked out at 0.331 ± 0.57. Then MEVVDPQQLGMFTEGELMSVGMDTFIHRIDSTEVIYQPRRKRAKLIGKYLMGDLLGEGSYGKVKEVLDSETLCRRAVKILKKKKLRRIPNGEANVKKEIQLLRRLRHKNVIQLVDVLYNEEKQKMYMVMEYCVCGMQEMLDSVPEKRFPWCQAHGYFCQLIDGLEYLHSQGIVHKDIKPGNLLLTTGGTLKISDLGVAEALHPFAADDTCRTSQGSPAFQPPEIANGLDTFSGFKVDIWSAGVTLYNITTGLYPFEGDNIYKLFENIGKGSYAIPGDCGPPLSDLLKGMLEYEPAKRFSIRQIRQHSWFRKKHPPAEAPVPIPPSPDTKDRWRSMTVVPYLEDLHGADEDEDLFDIEDDIIYTQDFTVPGQVPEEEASHNGQRRGLPKAVCMNGTEAAQLSTKSRAEGRAPNPARKACSASSKIRRLSACKQQ [V150W], with 0.631 ± 0.074. MEVVDPQQLGMFTEGELMSVGMDTFIHRIDSTEVIYQPRRKRAKLIGKYLMGDLLGEGSYGKVKEVLDSETLCRRAVKILKKKKLRRIPNGEANVKKEIQLLRRLRHKNVIQLVDVLYNEEKQKMYMVMEYCVCGMQEMLDSVPEKRFPQCQAHGYFCQLIDGLEYLHSQGIVHKDIKPGNLLLTTGGTLKISDLGVAEALHPFAADDTCRTSQGSPAFQPPEIANGLDTFSGFKVDIWSAGVTLYNITTGLYPFEGDNIYKLFENIGKGSYAIPGDCGPPLSDLLKGMLEYEPAKRFSIRQIRQHSWFRKKHPPAEAPVPIPPSPDTKDRWRSMTVVPYLEDLHGADEDEDLFDIEDDIIYTQDFTVPGQVPEEEASHNGQRRGLPKAVCMNGTEAAQLSTKSRAEGRAPNPARKACSASSKIRRLSACKQQ [V150Q]: the STK11 functional score was 0.265 ± 0.12. In the case of MEVVDPQQLGMFTEGELMSVGMDTFIHRIDSTEVIYQPRRKRAKLIGKYLMGDLLGEGSYGKVKEVLDSETLCRRAVKILKKKKLRRIPNGEANVKKEIQLLRRLRHKNVIQLVDVLYNEEKQKMYMVMEYCVCGMQEMLDSVPEKRFPTCQAHGYFCQLIDGLEYLHSQGIVHKDIKPGNLLLTTGGTLKISDLGVAEALHPFAADDTCRTSQGSPAFQPPEIANGLDTFSGFKVDIWSAGVTLYNITTGLYPFEGDNIYKLFENIGKGSYAIPGDCGPPLSDLLKGMLEYEPAKRFSIRQIRQHSWFRKKHPPAEAPVPIPPSPDTKDRWRSMTVVPYLEDLHGADEDEDLFDIEDDIIYTQDFTVPGQVPEEEASHNGQRRGLPKAVCMNGTEAAQLSTKSRAEGRAPNPARKACSASSKIRRLSACKQQ [V150T], the STK11 functional score was 0.385 ± 0.47. Then MEVVDPQQLGMFTEGELMSVGMDTFIHRIDSTEVIYQPRRKRAKLIGKYLMGDLLGEGSYGKVKEVLDSETLCRRAVKILKKKKLRRIPNGEANVKKEIQLLRRLRHKNVIQLVDVLYNEEKQKMYMVMEYCVCGMQEMLDSVPEKRFPRCQAHGYFCQLIDGLEYLHSQGIVHKDIKPGNLLLTTGGTLKISDLGVAEALHPFAADDTCRTSQGSPAFQPPEIANGLDTFSGFKVDIWSAGVTLYNITTGLYPFEGDNIYKLFENIGKGSYAIPGDCGPPLSDLLKGMLEYEPAKRFSIRQIRQHSWFRKKHPPAEAPVPIPPSPDTKDRWRSMTVVPYLEDLHGADEDEDLFDIEDDIIYTQDFTVPGQVPEEEASHNGQRRGLPKAVCMNGTEAAQLSTKSRAEGRAPNPARKACSASSKIRRLSACKQQ [V150R], with 1.17 ± 0.25; and MEVVDPQQLGMFTEGELMSVGMDTFIHRIDSTEVIYQPRRKRAKLIGKYLMGDLLGEGSYGKVKEVLDSETLCRRAVKILKKKKLRRIPNGEANVKKEIQLLRRLRHKNVIQLVDVLYNEEKQKMYMVMEYCVCGMQEMLDSVPEKRFPSCQAHGYFCQLIDGLEYLHSQGIVHKDIKPGNLLLTTGGTLKISDLGVAEALHPFAADDTCRTSQGSPAFQPPEIANGLDTFSGFKVDIWSAGVTLYNITTGLYPFEGDNIYKLFENIGKGSYAIPGDCGPPLSDLLKGMLEYEPAKRFSIRQIRQHSWFRKKHPPAEAPVPIPPSPDTKDRWRSMTVVPYLEDLHGADEDEDLFDIEDDIIYTQDFTVPGQVPEEEASHNGQRRGLPKAVCMNGTEAAQLSTKSRAEGRAPNPARKACSASSKIRRLSACKQQ [V150S], with 0.347 ± 0.13.
